Columns and labels:
[1] = biological target: VCAM1-Trx (human) (UniProt P19320); assay: SPR (Biacore), immobilisation of VCAM1 not stated
[2] = biological target: VCAM1-Trx (human) (UniProt P19320); assay: SPR (Biacore), synthetic peptide

## QARDCTGSWTWENGKWTWKGPSICPI [Peptide 1 specific to VCAM1 (bipodal-peptide binder)]
[1]
  koff: 0.1 s⁻¹
  kon: 330000 M⁻¹ s⁻¹
[2]
  Kd: 318 nM

— US20110152500A1
